Assay results as given in patent US20250243277A1 (AVACTA LIFE SCIENCES, published 2025).
Substitutions are numbered along the chain they refer to. Where two headings read alike, the source gives them in different places.

How the values were obtained:
[1] = molecular target: papain (UniProt P00784); test: cell-based or functional assay
[2] = molecular target: T1, human PD-L1 on CHO cells (human, UniProt Q9NZQ7 19-290); test: cell-based or functional assay
[3] = molecular target: T1, human PD-L1 on CHO cells; test: cell-based or functional assay; remark: listed apart in the source
[4] = molecular target: T2, human PD-L1-Fc (R&D Systems) (human, UniProt Q9NZQ7 19-239); test: PD-1/PD-L1 competitive ELISA, average n = 2; competitor PD-1-Fc coated
T2 construct: Bought from R&D Systems; Biotinylated in-house for the phage selection; also called huPD-L1-Fc; human PD-L1-Fc antigen; not shown: Fc part of the bought fusion
Protocol: (§1) The competitive inhibition of AFFIMER® multimers was evaluated by enzyme linked immunosorbent assay (ELISA). Human PD-1-Fc (R&D Systems) was coated at 0.5 μg/ml on the plate. Plates were washed two times with […] of washing buffer (PBS, Tween 20 0.1%) with a plate washer and saturated with Casein 5% (Sigma) in PBS for 90 minutes at room temperature (25±1° C.). Plates were subsequently washed. AFFIMER® polypeptides and controls (human PD-1-Fc; R&D Systems or blank) were then diluted in duplicate, and preincubated with huPD-L1-Fc (R&D Systems) at a predefined concentration equivalent to the EC₈₀ for 30 minutes then loaded on the plate for 90 minutes at room temperature (25±1° C.). Plates were washed 3 times. Biotinylated polyclonal antibody anti-human PD-L1 (R&D Systems) was then diluted in dilution buffer and incubated 90 minutes at room temperature (25±1° C.). Plates were washed 3 times and Streptavidin HRP was incubated for 30 minutes at room temperature (25±1° C.). Plates were washed and the substrate (TMB; Pierce Thermo-Scientific) added to the plate for 10 minutes. The reaction was stopped using an acidic solution and plates were read at absorbance 450-630 nm. The IC₅₀ was then calculated using the interpolated non-linear four-parameter standard curve.
Analysis identified three mutants which no longer bind target antigen, three mutants which have reduced binding and twelve (12) mutants which retaining binding to target antigen. […] The mutant AFFIMER® clones which retained binding to PD-L1 were assessed in both a competition ELISA (as described in Example 4) and the PD1:PD-L1 blockade cell-based Promega assay (as described in Example 5).

[5] = molecular target: T1, human PD-L1 on CHO cells; test: flow cytometry histogram, live-gated hu-PD-L1 CHO cells, Affimer at 100 nM
Protocol: Human PD-L1 CHO cells having a cell surface over expressing human PD-L1 or CHO-negative cells were plated at 50,000 cells per well in a round bottom tissue culture plate. AFFIMER® clones were titrated from 700 nM or monoclonal antibody (mAb) controls titrated from 10 nM in cell staining buffer (PBS, 1% BSA+2 mM EDTA+0.05% Sodium Azide buffer) and incubated for 1 hour. After two washes with staining buffer, AFFIMER® polypeptides were detected with an anti-cystatin antibody. After a further two washes, AF488-conjugated anti-goat antibody (to detect AFFIMER® polypeptides) or AF488-conjugated anti human IgG1 antibody (to detect mAb controls) were incubated for 40 minutes followed by an additional wash step. Viability dye (Zombie Aqua reagent, Biolegend) was added and the plates were incubated for 10 min. After a final wash, cells were fixed and the data acquired using a multiparameter flow cytometer (Guava 12HT, Luminex Corp).

[6] = molecular target: T2, human PD-L1-Fc (R&D Systems); test: PD-1/PD-L1 competition ELISA, % inhibition: Affimer pre-incubated with huPD-L1-Fc, then loaded on plate-coated human PD-1-Fc (blocked ligand)
Protocol: as §1, with “curve. […]” for “curve.”

[7] = molecular target: T2, human PD-L1-Fc (R&D Systems); test: SPR (Biacore T200): human PD-L1-Fc amine-coupled on a CM5 chip, Affimer monomer titrated as analyte (500 s association, 1000 s dissociation), 1:1 Langmuir fit
Protocol: (§2) BIACORE™ T200 binding kinetic analysis was performed on monomer AFFIMER® clones with running buffer HBS-EP+ (Cytiva) and a series S sensor CM5 chip immobilized with human PD-L1-Fc (R&D Systems) in 10 mM Sodium acetate pH4.0 μsing amine coupling reagents (Cytiva). A concentration titration of AFFIMER® monomer was run as analyte with an association time of 150 seconds, followed by a dissociation time of 300 seconds at a flow rate of 30 μl/min. For Clone 80, the association time was increased to 500 seconds and 1000 seconds dissociation time. The human PD-L1-Fc immobilized surface was regenerated with 3-3.5 mM NaOH solution (Cytiva) for 20-30 seconds at 20 μl/min flow rate. The kinetic data was blank subtracted and fit to a 1:1 Langmuir binding model (BIAcore evaluation software; Cytiva) to calculate an apparent KD value.

[8] = molecular target: T2, human PD-L1-Fc (R&D Systems); test: PD-L1/PD-1 competition ELISA, % inhibition: Affimer pre-incubated with huPD-L1-Fc, then loaded on plate-coated human PD-1-Fc (blocked ligand). Column head on the sheet reads 'EC50nM'; the text calls these values IC50
Protocol: as §1

[9] = molecular target: T1, human PD-L1 on CHO cells; test: cell-based or functional assay; remark: listed apart in the source
[10] = molecular target: T2, human PD-L1-Fc (R&D Systems); test: SPR (Biacore 8K), binding to PD-L1-Fc
[11] = molecular target: T1, human PD-L1 on CHO cells; test: cell-based or functional assay; remark: listed apart in the source
[12] = molecular target: T1, human PD-L1 on CHO cells; test: cell-based or functional assay; remark: listed apart in the source
[13] = molecular target: T1, human PD-L1 on CHO cells; test: cell-based or functional assay; remark: listed apart in the source
[14] = molecular target: T1, human PD-L1 on CHO cells; test: cell-based or functional assay; remark: listed apart in the source
[15] = molecular target: T2, human PD-L1-Fc (R&D Systems); test: SPR (Biacore T200): human PD-L1-Fc amine-coupled on a CM5 chip, Affimer monomer titrated as analyte, 1:1 Langmuir fit
Protocol: as §2

[16] = molecular target: T2, human PD-L1-Fc (R&D Systems); test: SPR (Biacore); huPD-L1-Fc captured on Protein A chip, Affimer as analyte 0.125 to 2 nM; ILF homodimer (avidity), huPD-L1-Fc captured on Protein A chip
Protocol: (§3) Secreted AFFIMER® clones were purified from supernatant using Ni Sepharose Excel resin (Cytiva) as described in Example 2 and run-on SEC-HPLC to assess their purity and molecular weight (FIG. 11). BIACORE™ was run using a sensor chip Protein A (Cytiva) capturing huPD-L1-Fc (R&D System), and AFFIMER® clones were run in solution as analyte increasing from 0.125 to 2 nM titration and a dissociation time of 2000 seconds. Regeneration of the antigen captured on the chip was performed using a 10 mM glycine pH1.5 solution. […] Avidity was further shown in both the PD-L1 binding ELISA and the Promega cell-based assay, with the ILF dimer blocking the PD-L1:PD1 interaction more strongly than a mammalian produced monomer (FIGS. 13-14).

[17] = molecular target: T2, human PD-L1-Fc (R&D Systems); test: SPR (Biacore): huPD-L1-Fc captured on a Protein A sensor chip, HEK-expressed Affimer as analyte rising from 0.125 to 2 nM, 2000 s dissociation
Protocol: as §3

[18] = molecular target: T2, human PD-L1-Fc (R&D Systems); test: PD-L1 binding ELISA (direct binding, absorbance 450nm - 630nm rises with the Affimer concentration). Column head on the sheet reads 'IC50 nM' although the curve is a half-maximal binding curve; the text does not name the PD-L1 reagent on the plate

T2 sequence (Q9NZQ7 19-239 limits assumed): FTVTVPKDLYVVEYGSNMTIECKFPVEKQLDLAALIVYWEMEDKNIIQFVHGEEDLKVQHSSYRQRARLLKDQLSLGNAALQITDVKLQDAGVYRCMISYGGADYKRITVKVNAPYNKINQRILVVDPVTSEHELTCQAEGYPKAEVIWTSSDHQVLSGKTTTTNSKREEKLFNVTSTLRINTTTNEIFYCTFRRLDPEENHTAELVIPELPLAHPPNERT
T1 sequence (Q9NZQ7 19-290): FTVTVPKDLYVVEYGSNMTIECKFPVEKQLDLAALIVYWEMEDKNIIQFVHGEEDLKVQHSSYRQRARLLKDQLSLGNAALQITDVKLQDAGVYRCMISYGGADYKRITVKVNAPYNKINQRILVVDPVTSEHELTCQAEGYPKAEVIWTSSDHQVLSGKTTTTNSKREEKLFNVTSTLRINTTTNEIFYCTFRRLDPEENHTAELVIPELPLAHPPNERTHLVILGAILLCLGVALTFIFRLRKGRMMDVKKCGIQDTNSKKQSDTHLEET
Chain of papain (P00784 134-345 limits assumed): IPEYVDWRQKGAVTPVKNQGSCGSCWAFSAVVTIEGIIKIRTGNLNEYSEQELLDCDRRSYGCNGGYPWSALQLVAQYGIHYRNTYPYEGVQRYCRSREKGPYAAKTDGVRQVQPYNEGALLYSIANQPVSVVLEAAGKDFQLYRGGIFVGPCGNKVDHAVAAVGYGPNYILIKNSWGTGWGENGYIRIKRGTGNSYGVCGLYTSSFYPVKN

Stefin A (from UniProt P01040 1-98)
IC50, inhibition of papain cleavage of Z-Phe-Arg-AMC [1]: 3.8 nM

B1: Clone 80 (designed binder)
chain: MIPGGLSEAKPATPEIQEIVDKVKPQLEEKTGETYGKLEAVQYKTQVVRRKHFPQWPGTNYYIKVRAGDNKYMHLKVFKSLDLQPREVFQEDLVLTGYQVDKNKDDELTGF
notes: type III Affimer monomer made in E. coli; His-tagged; also called Clone 80 parent control molecule
IC50, PD-1/PD-L1 blockade Bioassay (Promega) [2]: 30 nM
EC50 (read off the curve); Promega PD-1/PD-L1 blockade bioassay, fold of induction [3]: ~80 nM
IC50 [4]: 2.6 nM
% (cells in the positive gate) [5]: 98.9%
MFI [5]: 1330 MFI
IC50 [6]: 0.19 nM
Kd [7]: 0.568 nM
koff [7]: 0.00163 s⁻¹
kon [7]: 2.88e+06 M⁻¹ s⁻¹
EC50 [8]: 0.538 nM

B2: Clone 80 E87A (designed binder)
chain: B1 chain with E87A
notes: alanine mutant of Clone 80 made in E. coli
EC50 (read off the curve); Promega PD-1/PD-L1 blockade bioassay, fold of induction [9]: ~100 nM
Kd [10]: 0.61 nM
IC50 [4]: 3.83 nM

B3: Clone 80 K51A (designed binder)
chain: B1 chain with K51A
notes: as for B2
EC50 (read off the curve); Promega PD-1/PD-L1 blockade bioassay, fold of induction [11]: ~200 nM
Kd [10]: 0.66 nM
IC50 [4]: 3.35 nM

B4: Clone 80 Q90A (designed binder)
chain: B1 chain with Q90A
notes: as for B2
EC50 (read off the curve); Promega PD-1/PD-L1 blockade bioassay, fold of induction [12]: ~100 nM
Kd [10]: 0.97 nM
IC50 [4]: 2.23 nM

B5: Clone 80 R49A (designed binder)
chain: B1 chain with R49A
notes: as for B2
EC50 (read off the curve); Promega PD-1/PD-L1 blockade bioassay, fold of induction [3]: ~200 nM
Kd [10]: 2 nM
IC50 [4]: 4.83 nM

B6: Clone 80 R86A (designed binder)
chain: B1 chain with R86A
notes: as for B2
EC50 (read off the curve); Promega PD-1/PD-L1 blockade bioassay, fold of induction [13]: ~70 nM
Kd [10]: 4.02 nM
IC50 [4]: 2.33 nM

B7: Clone 80 V88A (designed binder)
chain: B1 chain with V88A
notes: as for B2
EC50 (read off the curve); Promega PD-1/PD-L1 blockade bioassay, fold of induction [14]: ~100 nM
Kd [10]: 1.96 nM
IC50 [4]: 2.56 nM

B8: Clone 255 (designed binder)
chain: MIPRGLSEAKPATPEIQEIVDKVKPQLEEKTNETYGKLEAVQYKTQVLAREGRQDWVLSTNYYIKVRAGDNKYMHLKVFNGPWVPFPHQQLADRVLTGYQVDKNKDDELTGF
notes: type I Affimer monomer
IC50, PD-1/PD-L1 blockade Bioassay (Promega) [2]: 30 nM
% (cells in the positive gate) [5]: 98%
MFI [5]: 1010 MFI
EC50 [8]: 0.205 nM

B9: Clone 54 (designed binder)
chain: MIPGGLSEAKPATPEIQEIVDKVKPQLEEKTGETYGKLEAVQYKTQVVINQQQIKHSGTNYYIKVRAGDNKYMHLKVFKSLWQHIPPDFWEDLVLTGYQVDKNKDDELTGF
notes: type III Affimer monomer; His-tagged
Kd [15]: 45.6 nM
koff [15]: 0.0909 s⁻¹
kon [15]: 1.99e+06 M⁻¹ s⁻¹
EC50 [8]: 16.9 nM

B10: Clone 256 (designed binder)
chain: MIPRGLSEAKPATPEIQEIVDKVKPQLEEKTNETYGKLEAVQYKTQVLAKEHGPDSWWSTNYYIKVRAGDNKYMHLKVFNGPQEKNQWVEEADRVLTGYQVDKNKDDELTGF
notes: type I Affimer monomer
% (cells in the positive gate) [5]: 98.1%
MFI [5]: 1240 MFI
EC50 [8]: 8.55 nM

B11: Clone 80 ILF (designed binder)
chain: MIPGGLSEAKPATPEIQEIVDKVKPQLEEKTGETYGKLEAVQYKTQVVRRKHFPQWPGTNYYIKVRAGDNKYMHLKVFKSLDLQPREVFQEDLVLTGYQVDKNKDDELTGFAEAAAKEAAAKEAAAKEAAAKEAAAKEAAAKMIPGGLSEAKPATPEIQEIVDKVKPQLEEKTGETYGKLEAVQYKTQVVRRKHFPQWPGTNYYIKVRAGDNKYMHLKVFKSLDLQPREVFQEDLVLTGYQVDKNKDDELTGF
notes: Two Clone 80 units in one chain joined by the rigid linker A(EAAAK)6; also called in-line fusion (ILF) homodimer; Dimer ILF format
Kd [16]: 0.0103 nM
koff [17]: 4.56e-05 s⁻¹
kon [17]: 4.44e+06 M⁻¹ s⁻¹
IC50 [18]: 0.05 nM
